± gives the standard deviation of the averaged measurements.

In this series the test system is Saccharomyces cerevisiae. Description: protein stability index of tFT-peptide fusion (C-terminal peptide) (PSI (0-1 scale)); higher = more stable (slower turnover). As to conditions: temperature: 30 C. As for the experimental part:
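MPS profiling in S. cerevisiae of the yeast C-terminome library: the last 12 aa of each annotated ORF are fused to the C-terminus of a sfGFP-mCherry timer, after a GGGS linker. Cells are FACS-sorted into 8 mCherry/sfGFP bins and deep-sequenced. PSI runs from 0 (unstable) to 1 (stable); wild type and das1Δ backgrounds, two technical replicates each.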

Setting [1] is: genetic background: das1 deletion.

Take FGIKKNDLKKSN [GSF2 C-terminal 12 aa]: the protein stability index under setting [1] is 0.708 ± 0.014 and the protein stability index (genetic background: wild type) was found to be 0.705 ± 0.023.

On to FGRKLKKIFGRK [SEG2 C-terminal 12 aa], for which the protein stability index is 0.675 ± 0.035 under setting [1] and 0.6421 ± 0.0063 (genetic background: wild type).

Take FIEALAKSVNEL [UGA1 C-terminal 12 aa]: the protein stability index reads like this: under setting [1], 0.7371 ± 0.0042; (genetic background: wild type) 0.689 ± 0.054.

In the case of FKELLGYTLVSA [VSB1 C-terminal 12 aa], the protein stability index was 0.356 ± 0.03 under setting [1] and 0.391 ± 0.0093 (genetic background: wild type).

Take FKITTEHGTTQQ [CRT10 C-terminal 12 aa]: the protein stability index under setting [1] stood at 0.675 ± 0.0095 and the protein stability index (genetic background: wild type) amounted to 0.685 ± 0.031.

As for FKLKDEYLLIDD [SAS2 C-terminal 12 aa], the protein stability index under setting [1] was found to be 0.69 ± 0.016 and the protein stability index (genetic background: wild type) was 0.666 ± 0.031.

Consider FLIHTPKHPPPT [POG1 C-terminal 12 aa], for which the protein stability index under setting [1] turned out to be 0.698 ± 0.011 and the protein stability index (genetic background: wild type) came to 0.725 ± 0.021.

In turn, FMWLLLALPVVF [FLO11 C-terminal 12 aa] showed a protein stability index under setting [1] of 0.362 ± 0.027 and a protein stability index (genetic background: wild type) of 0.393 ± 0.019.

As to FRALAELYNLVL [GAS5 C-terminal 12 aa], the protein stability index reads like this: under setting [1], 0.701 ± 0.02; (genetic background: wild type) 0.681 ± 0.013.

As to FRSTRSNTPNYT [HDA2 C-terminal 12 aa], the protein stability index was 0.728 ± 0.018 under setting [1] and 0.737 ± 0.046 (genetic background: wild type).

For the sequence FTAVLGTYLLTL [SDH3 C-terminal 12 aa], the protein stability index runs as follows: under setting [1], 0.6494 ± 0.005; (genetic background: wild type) 0.645 ± 0.0016.

In the case of FVLKTLNMNVTN [OST1 C-terminal 12 aa], the protein stability index reads like this: under setting [1], 0.681 ± 0.0095; (genetic background: wild type) 0.668 ± 0.0024.

As for FVRKIYSSIKVD [EMP70 C-terminal 12 aa], the protein stability index stood at 0.665 ± 0.025 under setting [1] and 0.614 ± 0.04 (genetic background: wild type).

For “FYNIHDERIREQ [YKL162C-A C-terminal 12 aa]”, the protein stability index by setting is: under setting [1], 0.746 ± 0.013; (genetic background: wild type) 0.657 ± 0.078.

For GATDTSCYKERG [MRPL27 C-terminal 12 aa], the protein stability index runs as follows: under setting [1], 0.695 ± 0.026; (genetic background: wild type) 0.702 ± 0.085.

GEEKKHLKMASP [MDE1 C-terminal 12 aa]: the protein stability index reads like this: under setting [1], 0.6905 ± 0.0062; (genetic background: wild type) 0.704 ± 0.035.

For the sequence GELFQIVSNQSS [STE6 C-terminal 12 aa], the protein stability index is 0.702 ± 0.017 under setting [1] and 0.679 ± 0.0082 (genetic background: wild type).

As for GFKGFSNKRVKG [MSS18 C-terminal 12 aa], the protein stability index by setting is: under setting [1], 0.689 ± 0.015; (genetic background: wild type) 0.6964 ± 0.0036.

GFRLRFWKSLGF [CYT2 C-terminal 12 aa] had a protein stability index under setting [1] of 0.706 ± 0.029 and a protein stability index (genetic background: wild type) of 0.716 ± 0.023.

With GGFDDGFDGSDF [WWM1 C-terminal 12 aa], the protein stability index under setting [1] is 0.719 ± 0.012 and the protein stability index (genetic background: wild type) amounted to 0.728 ± 0.0098.

“GGKIFSLKLTLI [YPR108W-A C-terminal 12 aa]” had a protein stability index under setting [1] of 0.673 ± 0.011 and a protein stability index (genetic background: wild type) of 0.384 ± 0.023.

As for GGLSDIGKNTSN [HUG1 C-terminal 12 aa], the protein stability index under setting [1] was 0.693 ± 0.013 and the protein stability index (genetic background: wild type) was 0.684 ± 0.016.

Sequence GGNSSKKGKKKR [RQC2 C-terminal 12 aa] registered a protein stability index under setting [1] of 0.6835 ± 0.00078 and a protein stability index (genetic background: wild type) of 0.724 ± 0.022.

On to GGRNQYGGDDDY [DDR48 C-terminal 12 aa], for which the protein stability index reads like this: under setting [1], 0.698 ± 0.015; (genetic background: wild type) 0.6858 ± 0.0067.

For GKKLKKIFGRKK [SEG1 C-terminal 12 aa], the protein stability index by setting is: under setting [1], 0.719 ± 0.006; (genetic background: wild type) 0.6627 ± 0.0025.

GKTDYLDTKLIF [EKI1 C-terminal 12 aa]: the protein stability index by setting is: under setting [1], 0.739 ± 0.02; (genetic background: wild type) 0.726 ± 0.0084.

As to GKVAKYIFDNIC [BNA7 C-terminal 12 aa], the protein stability index is 0.696 ± 0.015 under setting [1] and 0.722 ± 0.024 (genetic background: wild type).

For the sequence GKVLFKPSSSIF [YBR064W C-terminal 12 aa], the protein stability index was 0.719 ± 0.011 under setting [1] and 0.695 ± 0.017 (genetic background: wild type).

On to GKYFLKEEQDEI [YUR1 C-terminal 12 aa], for which the protein stability index runs as follows: under setting [1], 0.692 ± 0.025; (genetic background: wild type) 0.7058 ± 0.0067.

Take GKYNIKVKLNFI [VAR1 C-terminal 12 aa]: the protein stability index is, setting by setting: under setting [1], 0.704 ± 0.027; (genetic background: wild type) 0.69 ± 0.096.

On to GLQFHFKAEHKD [PHO86 C-terminal 12 aa], for which the protein stability index under setting [1] is 0.701 ± 0.014 and the protein stability index (genetic background: wild type) worked out at 0.686 ± 0.058.

On to GLSDEEDSSEED [RRT14 C-terminal 12 aa], for which the protein stability index came to 0.679 ± 0.00072 under setting [1] and 0.698 ± 0.021 (genetic background: wild type).

Turning to GLVATAVKQLPQ [VPS64 C-terminal 12 aa], the protein stability index turned out to be 0.674 ± 0.0032 under setting [1] and 0.662 ± 0.014 (genetic background: wild type).

Take GNINDDDDGFFD [PLP2 C-terminal 12 aa]: the protein stability index worked out at 0.724 ± 0.021 under setting [1] and 0.698 ± 0.019 (genetic background: wild type).

As for GNLMRSSNVLEK [SLO1 C-terminal 12 aa], the protein stability index is, setting by setting: under setting [1], 0.685 ± 0.0076; (genetic background: wild type) 0.7 ± 0.016.

Take GNSDGSVEVTEK [RKI1 C-terminal 12 aa]: the protein stability index runs as follows: under setting [1], 0.6897 ± 0.0053; (genetic background: wild type) 0.705 ± 0.03.

With GPLLDYLSSDED [CWC2 C-terminal 12 aa], the protein stability index under setting [1] stood at 0.7139 ± 0.0039 and the protein stability index (genetic background: wild type) came to 0.693 ± 0.0055.

As to GQHTKTTGRRRA [RPS18A C-terminal 12 aa], the protein stability index was found to be 0.6995 ± 0.0039 under setting [1] and 0.686 ± 0.032 (genetic background: wild type).

Turning to GQIVIVHYLYDR [YOR218C C-terminal 12 aa], the protein stability index was 0.422 ± 0.018 under setting [1] and 0.445 ± 0.051 (genetic background: wild type).

Regarding GQPPAPFRLRSD [SDS3 C-terminal 12 aa], the protein stability index worked out at 0.7109 ± 0.00038 under setting [1] and 0.709 ± 0.049 (genetic background: wild type).

As for GQSLTNTGGGCC [YPT1 C-terminal 12 aa], the protein stability index was 0.707 ± 0.011 under setting [1] and 0.6389 ± 0.00065 (genetic background: wild type).

For GRVHGEEDPTKK [HSP12 C-terminal 12 aa], the protein stability index by setting is: under setting [1], 0.707 ± 0.024; (genetic background: wild type) 0.6953 ± 0.0032.

For GSLLLYLLLKIL [INP54 C-terminal 12 aa], the protein stability index by setting is: under setting [1], 0.34 ± 0.018; (genetic background: wild type) 0.119 ± 0.0017.

Take GSNAEEDDDLYS [CDC48 C-terminal 12 aa]: the protein stability index is 0.7027 ± 0.0045 under setting [1] and 0.653 ± 0.03 (genetic background: wild type).

Turning to GSPNSLLLNIGR [PHB1 C-terminal 12 aa], the protein stability index runs as follows: under setting [1], 0.698 ± 0.015; (genetic background: wild type) 0.719 ± 0.016.

For the sequence GTKVDDDKKNKS [SPP2 C-terminal 12 aa], the protein stability index runs as follows: under setting [1], 0.7041 ± 0.0011; (genetic background: wild type) 0.663 ± 0.03.

Take GVFSKSSAELRF [YDL016C C-terminal 12 aa]: the protein stability index under setting [1] amounted to 0.715 ± 0.013 and the protein stability index (genetic background: wild type) is 0.706 ± 0.023.

Consider GVYMELVKVLFG [YLR177W C-terminal 12 aa], for which the protein stability index worked out at 0.607 ± 0.015 under setting [1] and 0.631 ± 0.013 (genetic background: wild type).

For GWDLRFEEDPSA [TRP5 C-terminal 12 aa], the protein stability index reads like this: under setting [1], 0.731 ± 0.018; (genetic background: wild type) 0.6905 ± 0.0042.

With GYIVGVAALLFL [ANS1 C-terminal 12 aa], the protein stability index reads like this: under setting [1], 0.428 ± 0.011; (genetic background: wild type) 0.4532 ± 0.004.

These data come from the supplement of paper PMC10724198.
